Reference: publication PMC5663475, “SAV1 promotes Hippo kinase activation through antagonizing the PP2A phosphatase STRIPAK” (eLife, 2017)
Residue numbers refer to the chain shown, from its start. Names may count otherwise. One block for each molecule: values may come before it. Non-standard residues stand in square brackets, D forms with d. No end group written: not given here. pT = C[C@@H](OP(=O)(O)O)[C@H](N)C(=O)O

How the values were obtained:
MCF10A cells = experiment: Immunoblot of Hippo pathway phosphorylation after latrunculin B treatment; type: cell-based, human; settings: LatB 1 μg/ml, 1 hr
Description: 293FT cells (Thermo Scientific, catalogue #R70007; not independently authenticated) were cultured in DMEM supplemented with 10% fetal bovine serum, 2 mM L-glutamine and 1% penicillin/streptomycin. MCF10A cells (ATCC, catalogue #CRL-10317; not independently authenticated) were cultured in DMEM/F12 containing 5% horse serum, 20 ng/ml EGF, 0.5 μg/ml hydrocortisone, 100 ng/ml cholera toxin, 10 μg/ml insulin and 1% penicillin/streptomycin. All cells were incubated at 37°C in a humidified 5% CO2 atmosphere. All cell lines were checked by 4’,6-diamidino-2-phenylindole (DAPI) staining to ascertain that they were free of mycoplasma contamination. Transient transfection of 293FT cells was performed with Lipojet (Signagen). Cells were collected for further experiments after 24 hr. siRNA transfection was performed with Lipofectamine RNAiMAX (Invitrogen, Waltham, MA) according to manufacturer’s instructions. The following siRNAs were synthesized by Dharmacon and used in this study: siSLMAP #1, […]dTdT; siSLMAP #2, […]dTdT; siSTRIP1, […]dTdT.
Rabbit polyclonal MST2 phospho-T336 antibody was raised against the MST2 phospho-peptide with the sequence of ESVGpTMRATC at an on-campus facility. Generation of the MST2 phospho-T378 antibody was described previously ([Ni et al., 2015]). […] For immunoblotting, cell lysates and immunoprecipitates were analyzed by standard immunoblotting. The membranes were scanned and band intensities were quantified by the Odyssey Infrared Imaging System (LI-COR). […] We quantified phospho- and total protein bands in a set of three independent experiments. […] The ratios of normalized phospho-proteins versus normalized total proteins were calculated and plotted. […]

MOB1^33-216 (human) = MOB1^33-216 (human) (UniProt Q9H8S9); experiment: ITC; MicroCal iTC200, 20 °C; 50 µM protein in the cell titrated with 500 µM phospho-peptide; 20 mM Tris pH 8.0, 50 mM NaCl (5% DMSO for pT325-MST2 320-329); A + B <-> AB model
[1] = target: T1, SLMAP FHA (residues 1–140) (human, UniProt Q14BN4 1-140); experiment: as above; settings: both partners purified
T1 construct: SLMAP, human, FHA domain, residues 1-140; also called SLMAP FHA domain; apo-SLMAP FHA; source: E. coli BL21 (DE3)-T1R, purified (glutathione-Sepharose, TEV cleavage, Superdex 75); not shown: GST, N-terminal, cleaved
T1 sequence (looked up): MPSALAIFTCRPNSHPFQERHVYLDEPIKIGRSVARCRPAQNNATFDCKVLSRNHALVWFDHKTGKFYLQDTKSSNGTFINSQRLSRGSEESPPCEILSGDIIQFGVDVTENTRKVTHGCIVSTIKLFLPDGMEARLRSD

MST2 SARAH = experiment: In vitro pull-down of 35S-labeled SAV1 SARAH by GST-MST2 SARAH; type: binding, human; settings: GST-MST2 SARAH pull-down of in vitro translated 35S-labeled Myc-SAV1 SARAH (residues 321–383), SDS-PAGE, autoradiography
Description: To assay the heterodimerization of SARAH domains between MST2 and SAV1, Myc-tagged SAV1 SARAH (residues 321–383) and the corresponding mutants were in vitro translated in reticulocyte lysate in the presence of ^35S-methionine according to the manufacturer’s protocol (Pierce). Purified GST-MST2 SARAH (residues 430–491) fusion protein was bound to glutathione-Sepharose beads and incubated with ^35S-labeled SAV1 SARAH WT and mutants. The beads were washed three times with TBS containing 0.05% (v/v) Tween. The proteins retained on the beads were analyzed by SDS-PAGE followed by autoradiography.

SLMAP FHA/R32A = target: T2, SLMAP FHA/R32A (human, UniProt Q14BN4 1-140, R32A); experiment: ITC; MicroCal iTC200, 20 °C; 50 µM protein in the cell titrated with 500 µM phospho-peptide; 20 mM Tris pH 8.0, 50 mM NaCl (5% DMSO for pT325-MST2 320-329); A + B <-> AB model; settings: both partners purified
T2 construct: SLMAP, human, FHA domain, residues 1-140, R32A; also called SLMAP FHA/R32A mutant; source: E. coli BL21 (DE3)-T1R, purified (glutathione-Sepharose, TEV cleavage, Superdex 75); not shown: GST, N-terminal, cleaved
T2 sequence (looked up): T1 sequence (looked up) with R32A

MST2 = experiment: MST2-SAV1 autophosphorylation (pT180); type: biochemical, human; settings: 2.5 µM MST2-SAV1 complex, dephosphorylated by 0.5 µM PP2A A-C, then 5 µM okadaic acid; 2 mM ATP, anti-pT180 blot; at least two independent experiments
Description: For assaying MST2-SAV1 autophosphorylation, 2.5 µM MST2-SAV1-ΔN198 or MST2-SAV1-ΔN268 was dephosphorylated by 0.5 µM PP2A A-C core complex for 30 min at room temperature. Okadaic acid was then added to a final concentration of 5 µM and the reaction mixture was incubated on ice for another 30 min. The reaction mixture was diluted by a ratio of 1:5 at room temperature with a kinase reaction buffer containing 50 mM Tris (pH 7.5), 150 mM NaCl, 5 mM MgCl2, 2 mM ATP, and 1 mM DTT. At different time intervals, autophosphorylation was terminated by adding 2X SDS loading buffer and boiling for 5 min in 100 °C water bath. All samples were separated by SDS-PAGE and blotted by a specific antibody against pT180 of MST2.

Molecule: C/C1=C/C(=O)O[C@@H]2C[C@@H](CC[C@H](C)/C=C\CC1)O[C@@](O)([C@@H]1CSC(=O)N1)C2 [LatB, Latrunculin B]
MOB1 T35 phosphorylation (MCF10A cells): induced
MST1/2 T-loop phosphorylation (MCF10A cells): induced
downstream phosphorylation of LATS1/2 and YAP (MCF10A cells): induced

B4: I350A: SAV1 SARAH (residues 321–383) mutant (protein, UniProt Q9H4B6 321-383, looked up, variant I350A)
chain: ILKWELFQLADLDTYQGMLKLLFMKELEQAVKMYEAYRQALLTELENRKQRQQWYAQQHGKNF
modifications: SARAH domain
notes: SAV1 SARAH (residues 321–383) mutant
binding of SAV1 SARAH mutant to MST2 (MST2 SARAH): completely lost the binding to MST2

B5: R368A: SAV1 SARAH (residues 321–383) mutant (protein, UniProt Q9H4B6 321-383, looked up, variant R368A)
chain: B4 chain with A30I, R48A
modifications: SARAH domain
notes: as for B4
binding of SAV1 SARAH mutant to MST2 (MST2 SARAH): completely lost the binding to MST2

B6: L365A: SAV1 SARAH (residues 321–383) mutant (protein, UniProt Q9H4B6 321-383, looked up, variant L365A)
chain: B4 chain with A30I, L45A
modifications: SARAH domain
notes: as for B4
binding of SAV1 SARAH mutant to MST2 (MST2 SARAH): completely lost the binding to MST2

B7: Y357A: SAV1 SARAH (residues 321–383) mutant (protein, UniProt Q9H4B6 321-383, looked up, variant Y357A)
chain: B4 chain with A30I, Y37A
modifications: SARAH domain
notes: as for B4
binding of SAV1 SARAH mutant to MST2 (MST2 SARAH): completely lost the binding to MST2

B8: L361A: SAV1 SARAH (residues 321–383) mutant (protein, UniProt Q9H4B6 321-383, looked up, variant L361A)
chain: B4 chain with A30I, L41A
modifications: SARAH domain
notes: as for B4
binding of SAV1 SARAH mutant to MST2 (MST2 SARAH): completely lost the binding to MST2

B11: SAV1 ∆N268: SAV1 SARAH alone (protein, UniProt Q9H4B6 269-383, looked up, fragment)
chain: SVPRYDQPPPVTYQPQQTERNQSLLVPANPYHTAEIPDWLQVYARAPVKYDHILKWELFQLADLDTYQGMLKLLFMKELEQIVKMYEAYRQALLTELENRKQRQQWYAQQHGKNF
MST2 activation (T180 autophosphorylation) in vitro (MST2): blocked MST2 activation in vitro

The next lines start with the values.

dH (MOB1^33-216 (human)): -13.5 kcal/mol
Kd [1]: 393 nM
dH [1]: -9.5 kcal/mol
B1: pT378-MST2^371-401 (peptide)
peptide: DEEEEDG[pT]MKRNATSPQVQRPSFMDYFDKQD
notes: MST2, human, linker residues 371-401; source: synthetic peptide

Kd [1]: 1140 nM
dH [1]: -8.2 kcal/mol
B2: pT336-MST2^331-340 (peptide)
peptide: VESVG[pT]MRAT
notes: MST2, human, linker residues 331-340; source: synthetic peptide

binding of SAV1 SARAH mutant to MST2 (MST2 SARAH): completely lost the binding to MST2
B3: SAV1 E346A: SAV1 SARAH (residues 321–383) mutant (protein)
chain: B4 chain with E26A, A30I
modifications: not fully specified (N-terminus); also: 35S-methionine labelled, Myc tag, end not given here
notes: as for B4

dH (MOB1^33-216 (human)): -4 kcal/mol
Kd (SLMAP FHA/R32A): 18800 nM
dH (SLMAP FHA/R32A): -6.7 kcal/mol
Kd [1]: 160 nM
dH [1]: -9 kcal/mol
B9: pT378-MST2^373-382 (peptide)
peptide: EEEDG[pT]MKRN
notes: MST2, human, linker residues 373-382; also called pMST2; source: synthetic peptide

Kd [1]: 392 nM
dH [1]: -10.3 kcal/mol
B10: pT325-MST2^320-329 (peptide)
peptide: ELDSH[pT]MVKT
notes: MST2, human, linker residues 320-329; source: synthetic peptide
